Laboratory results published in article PMC10786891, “Massively parallel profiling of RNA-targeting CRISPR-Cas13d”.

T1: EsCas13d, nuclease-dead (Eubacterium siraeum, UniProt B0MS50, R295A;H300A;R849A;H854A)
T1 sequence: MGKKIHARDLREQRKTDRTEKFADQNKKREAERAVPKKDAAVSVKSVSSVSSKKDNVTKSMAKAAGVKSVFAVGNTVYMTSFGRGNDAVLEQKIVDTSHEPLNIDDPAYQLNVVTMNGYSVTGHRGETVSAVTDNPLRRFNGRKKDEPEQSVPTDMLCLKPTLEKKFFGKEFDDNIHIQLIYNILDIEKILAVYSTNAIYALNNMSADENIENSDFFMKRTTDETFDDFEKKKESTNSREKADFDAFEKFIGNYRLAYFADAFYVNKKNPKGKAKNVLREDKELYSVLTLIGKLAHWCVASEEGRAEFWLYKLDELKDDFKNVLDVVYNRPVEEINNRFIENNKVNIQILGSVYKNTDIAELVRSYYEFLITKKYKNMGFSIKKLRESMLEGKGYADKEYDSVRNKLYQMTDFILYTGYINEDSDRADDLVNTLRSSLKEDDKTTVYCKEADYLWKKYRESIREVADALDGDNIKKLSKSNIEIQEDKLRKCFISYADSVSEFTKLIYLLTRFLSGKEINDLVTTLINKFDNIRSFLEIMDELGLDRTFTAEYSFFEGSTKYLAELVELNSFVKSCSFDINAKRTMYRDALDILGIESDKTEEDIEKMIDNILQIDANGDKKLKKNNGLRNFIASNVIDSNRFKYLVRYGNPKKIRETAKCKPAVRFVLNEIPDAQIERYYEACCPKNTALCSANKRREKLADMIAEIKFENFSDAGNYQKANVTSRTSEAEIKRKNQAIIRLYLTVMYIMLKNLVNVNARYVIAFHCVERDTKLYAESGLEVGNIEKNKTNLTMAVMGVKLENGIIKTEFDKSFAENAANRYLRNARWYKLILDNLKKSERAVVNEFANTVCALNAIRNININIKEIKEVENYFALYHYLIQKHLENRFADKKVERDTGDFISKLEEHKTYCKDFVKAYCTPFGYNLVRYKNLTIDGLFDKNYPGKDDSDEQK


Target: T1, EsCas13d, nuclease-dead
Experiment: crRNA (strand 1, pre-loaded); Mg2+; 40 mM Tris-HCl pH 7.5, 150 mM NaCl, 6 mM MgCl2, 1 mM DTT, 0.1% Tween-20, 0.2 mg/ml BSA; 25 C; 10 min per concentration, then washed
Details: tags: His6-TwinStrep-SUMO cleaved; N-terminal SNAP kept (SNAP-Surface 488); label: 3' end held by stalled T7 RNA polymerase

Binder	Kd [nM]
target 2 MT 5'PFS ACA 3'PFS CAU (mixed) RNA 1: CACCCGUGCAAAAUUGCAGGGGUCUAAAACCUUCUCCAAAUUGUUUCAUCCU RNA 2: GGGAAUGGAUCCACAUCUACGAAUUCACAAGGAUGAAACAAUUUGGAGAAGCAUAGAUCGGAAGAGCACACGU	4.4 ± 1
target 2 MT 5'PFS AAC 3'PFS CGC (mixed) RNA 1: CACCCGUGCAAAAUUGCAGGGGUCUAAAACCUUCUCCAAAUUGUUUCAUCCU RNA 2: GGGAAUGGAUCCACAUCUACGAAUUCAACAGGAUGAAACAAUUUGGAGAAGCGCAGAUCGGAAGAGCACACGU	4.7 ± 1.1
target 2 MT 5'PFS UUG 3'PFS UUA (mixed) RNA 1: CACCCGUGCAAAAUUGCAGGGGUCUAAAACCUUCUCCAAAUUGUUUCAUCCU RNA 2: GGGAAUGGAUCCACAUCUACGAAUUCUUGAGGAUGAAACAAUUUGGAGAAGUUAAGAUCGGAAGAGCACACGU	29 ± 7
target 2 MT 5'PFS GGA 3'PFS AGU (mixed) RNA 1: CACCCGUGCAAAAUUGCAGGGGUCUAAAACCUUCUCCAAAUUGUUUCAUCCU RNA 2: GGGAAUGGAUCCACAUCUACGAAUUCGGAAGGAUGAAACAAUUUGGAGAAGAGUAGAUCGGAAGAGCACACGU	14.1 ± 1.4
target 2 MT 5'PFS CUC 3'PFS CGC (mixed) RNA 1: CACCCGUGCAAAAUUGCAGGGGUCUAAAACCUUCUCCAAAUUGUUUCAUCCU RNA 2: GGGAAUGGAUCCACAUCUACGAAUUCCUCAGGAUGAAACAAUUUGGAGAAGCGCAGAUCGGAAGAGCACACGU	2.25 ± 0.29
target 2 MT 5'PFS UUG 3'PFS AAA (mixed) RNA 1: CACCCGUGCAAAAUUGCAGGGGUCUAAAACCUUCUCCAAAUUGUUUCAUCCU RNA 2: GGGAAUGGAUCCACAUCUACGAAUUCUUGAGGAUGAAACAAUUUGGAGAAGAAAAGAUCGGAAGAGCACACGU	6.7 ± 0.6
target 2 MT 5'PFS GGA 3'PFS AGC (mixed) RNA 1: CACCCGUGCAAAAUUGCAGGGGUCUAAAACCUUCUCCAAAUUGUUUCAUCCU RNA 2: GGGAAUGGAUCCACAUCUACGAAUUCGGAAGGAUGAAACAAUUUGGAGAAGAGCAGAUCGGAAGAGCACACGU	7.3 ± 0.7
target 2 MT 5'PFS GUU 3'PFS UGU (mixed) RNA 1: CACCCGUGCAAAAUUGCAGGGGUCUAAAACCUUCUCCAAAUUGUUUCAUCCU RNA 2: GGGAAUGGAUCCACAUCUACGAAUUCGUUAGGAUGAAACAAUUUGGAGAAGUGUAGAUCGGAAGAGCACACGU	21 ± 2.3
target 2 MT 5'PFS GGU 3'PFS AGG (mixed) RNA 1: CACCCGUGCAAAAUUGCAGGGGUCUAAAACCUUCUCCAAAUUGUUUCAUCCU RNA 2: GGGAAUGGAUCCACAUCUACGAAUUCGGUAGGAUGAAACAAUUUGGAGAAGAGGAGAUCGGAAGAGCACACGU	14.4 ± 1.3
target 2 MT 5'PFS UUU 3'PFS UCC (mixed) RNA 1: CACCCGUGCAAAAUUGCAGGGGUCUAAAACCUUCUCCAAAUUGUUUCAUCCU RNA 2: GGGAAUGGAUCCACAUCUACGAAUUCUUUAGGAUGAAACAAUUUGGAGAAGUCCAGAUCGGAAGAGCACACGU	20.7 ± 1.9
target 2 MT 5'PFS GAU 3'PFS UUU (mixed) RNA 1: CACCCGUGCAAAAUUGCAGGGGUCUAAAACCUUCUCCAAAUUGUUUCAUCCU RNA 2: GGGAAUGGAUCCACAUCUACGAAUUCGAUAGGAUGAAACAAUUUGGAGAAGUUUAGAUCGGAAGAGCACACGU	47 ± 13
target 2 MT 5'PFS CUC 3'PFS CGA (mixed) RNA 1: CACCCGUGCAAAAUUGCAGGGGUCUAAAACCUUCUCCAAAUUGUUUCAUCCU RNA 2: GGGAAUGGAUCCACAUCUACGAAUUCCUCAGGAUGAAACAAUUUGGAGAAGCGAAGAUCGGAAGAGCACACGU	1.62 ± 0.31
target 2 MT 5'PFS UUG 3'PFS AAG (mixed) RNA 1: CACCCGUGCAAAAUUGCAGGGGUCUAAAACCUUCUCCAAAUUGUUUCAUCCU RNA 2: GGGAAUGGAUCCACAUCUACGAAUUCUUGAGGAUGAAACAAUUUGGAGAAGAAGAGAUCGGAAGAGCACACGU	9.6 ± 0.7
target 2 MT 5'PFS AAA 3'PFS AGC (mixed) RNA 1: CACCCGUGCAAAAUUGCAGGGGUCUAAAACCUUCUCCAAAUUGUUUCAUCCU RNA 2: GGGAAUGGAUCCACAUCUACGAAUUCAAAAGGAUGAAACAAUUUGGAGAAGAGCAGAUCGGAAGAGCACACGU	4.2 ± 1.5
target 2 MT 5'PFS UUG 3'PFS AAC (mixed) RNA 1: CACCCGUGCAAAAUUGCAGGGGUCUAAAACCUUCUCCAAAUUGUUUCAUCCU RNA 2: GGGAAUGGAUCCACAUCUACGAAUUCUUGAGGAUGAAACAAUUUGGAGAAGAACAGAUCGGAAGAGCACACGU	9.8 ± 1.2
target 2 MT 5'PFS ACA 3'PFS CAG (mixed) RNA 1: CACCCGUGCAAAAUUGCAGGGGUCUAAAACCUUCUCCAAAUUGUUUCAUCCU RNA 2: GGGAAUGGAUCCACAUCUACGAAUUCACAAGGAUGAAACAAUUUGGAGAAGCAGAGAUCGGAAGAGCACACGU	4.8 ± 0.9
target 2 MT 5'PFS AAA 3'PFS AGG (mixed) RNA 1: CACCCGUGCAAAAUUGCAGGGGUCUAAAACCUUCUCCAAAUUGUUUCAUCCU RNA 2: GGGAAUGGAUCCACAUCUACGAAUUCAAAAGGAUGAAACAAUUUGGAGAAGAGGAGAUCGGAAGAGCACACGU	4.7 ± 0.9
target 2 MT 5'PFS UUU 3'PFS CAG (mixed) RNA 1: CACCCGUGCAAAAUUGCAGGGGUCUAAAACCUUCUCCAAAUUGUUUCAUCCU RNA 2: GGGAAUGGAUCCACAUCUACGAAUUCUUUAGGAUGAAACAAUUUGGAGAAGCAGAGAUCGGAAGAGCACACGU	5 ± 0.4
target 2 MT 5'PFS UUU 3'PFS UCA (mixed) RNA 1: CACCCGUGCAAAAUUGCAGGGGUCUAAAACCUUCUCCAAAUUGUUUCAUCCU RNA 2: GGGAAUGGAUCCACAUCUACGAAUUCUUUAGGAUGAAACAAUUUGGAGAAGUCAAGAUCGGAAGAGCACACGU	8.7 ± 1
target 2 MT 5'PFS GGA 3'PFS AGA (mixed) RNA 1: CACCCGUGCAAAAUUGCAGGGGUCUAAAACCUUCUCCAAAUUGUUUCAUCCU RNA 2: GGGAAUGGAUCCACAUCUACGAAUUCGGAAGGAUGAAACAAUUUGGAGAAGAGAAGAUCGGAAGAGCACACGU	8.7 ± 1.1
target 2 MT 5'PFS GGU 3'PFS AGA (mixed) RNA 1: CACCCGUGCAAAAUUGCAGGGGUCUAAAACCUUCUCCAAAUUGUUUCAUCCU RNA 2: GGGAAUGGAUCCACAUCUACGAAUUCGGUAGGAUGAAACAAUUUGGAGAAGAGAAGAUCGGAAGAGCACACGU	10.6 ± 1.5
target 2 MT 5'PFS AAC 3'PFS CGG (mixed) RNA 1: CACCCGUGCAAAAUUGCAGGGGUCUAAAACCUUCUCCAAAUUGUUUCAUCCU RNA 2: GGGAAUGGAUCCACAUCUACGAAUUCAACAGGAUGAAACAAUUUGGAGAAGCGGAGAUCGGAAGAGCACACGU	3.2 ± 0.5
target 2 MT 5'PFS GGA 3'PFS AGG (mixed) RNA 1: CACCCGUGCAAAAUUGCAGGGGUCUAAAACCUUCUCCAAAUUGUUUCAUCCU RNA 2: GGGAAUGGAUCCACAUCUACGAAUUCGGAAGGAUGAAACAAUUUGGAGAAGAGGAGAUCGGAAGAGCACACGU	8.4 ± 0.6
target 2 MT 5'PFS UUG 3'PFS AAU (mixed) RNA 1: CACCCGUGCAAAAUUGCAGGGGUCUAAAACCUUCUCCAAAUUGUUUCAUCCU RNA 2: GGGAAUGGAUCCACAUCUACGAAUUCUUGAGGAUGAAACAAUUUGGAGAAGAAUAGAUCGGAAGAGCACACGU	9.8 ± 1.2
target 2 MT 5'PFS GGU 3'PFS AGC (mixed) RNA 1: CACCCGUGCAAAAUUGCAGGGGUCUAAAACCUUCUCCAAAUUGUUUCAUCCU RNA 2: GGGAAUGGAUCCACAUCUACGAAUUCGGUAGGAUGAAACAAUUUGGAGAAGAGCAGAUCGGAAGAGCACACGU	13.8 ± 1.9
target 2 MT 5'PFS UCU 3'PFS AGC (mixed) RNA 1: CACCCGUGCAAAAUUGCAGGGGUCUAAAACCUUCUCCAAAUUGUUUCAUCCU RNA 2: GGGAAUGGAUCCACAUCUACGAAUUCUCUAGGAUGAAACAAUUUGGAGAAGAGCAGAUCGGAAGAGCACACGU	11 ± 2.3
target 1 A1C,A14G (mixed) RNA 1: CACCCGUGCAAAAAUGCAGGGGUCUAAAACUGAGCGGAUAACCUCUCUAUGG RNA 2: GGGAAUGGAUCCACAUCUACGAAUUCGUACCAUAGAGGGGUUAUCCGCUCCCCGAGAUCGGAAGAGCACACGU	25 ± 4
target 1 C4G,C7U (mixed) RNA 1: CACCCGUGCAAAAAUGCAGGGGUCUAAAACUGAGCGGAUAACCUCUCUAUGG RNA 2: GGGAAUGGAUCCACAUCUACGAAUUCGUACCAUAGAGAGGUUAUUCGGUCACCGAGAUCGGAAGAGCACACGU	3.78 ± 0.31
